# Assay: label from the status in PepcDB records
row,Sequence,protein production
1,SGDERFTLRIKDLRTGELLPDIIEDIFYGVAFSPDGTRLFYTVVDDSWRPYQVKSHILGTPVAEDEVLYQEDDVAMWLGFDLSSDRRHLVLSIGCSEFSETRLLRFEDYDAGLHTVISREHHILYEAEPFLLDGKETLLLTHNKDAINSMVSLVDPAELSKPLAEQHWRTVVEHSDDVRVNGAGVTSTHLVLSVRKDTIERVQVLPLAGLGTATQGAPVEPAFHEELYTAGVSGSDYESPVIRMGYTSYFTPSRVYDFVLPTAEQPGGELLLRKESPVLGGYSASDYVATREWATADDGTQVPLSVLRHASVQQDGTAAGLVYGYGSYELSMDPGFGVARLSLLDRGIVMVIAHIRGGGELGRKWYEDGKKFTKKNTFTDFIAATDWLAGSGWVDPSRIAAMGGSAGGLLMGAVANMAPEKYAAVVAQVPFVDALTTILDPELPLSALEWEEWGNPITDPEAYAYMKSYTPYENVGAVPYPKIAAVTSFNDTRVLYVEPAKWVQALRSASTGSEPIVMKIEMDGGHGGASGRYVQWRERAWDYAFIADSVG,failed
2,SGEKSENCGVPEDLLNGLKVTDTQEAECAGPPVPDPKNQHSQSKLLRDDEAHLQEDQGEEECFHDCSASFEEEPGADKVENKSNEDVNSSELDEEYLIELKKNMSDEEKQKRREESTRLKEEGNEQFKKGDYIEAESSYSRALEMCPSCFQKERSILFSNRAAARMKQDKKEMAINDCSKAIQLNPSYIRAILRRAELYEKTDKLDEALEDYKSILEKDPSIHQAREACMRLPKQIEERNERLKEEMLGKLKDLGNLVLRPFGLSTENFQIKQDSSTGSYSINFVQNPNNNR,not failed
3,SGHPPLEFSDCYLDSPDFRERLKCYEQELERTNKFIKDVIKDGNALISAMRNYSSAVQKFSQTLQSFQFDFIGDTLTDDEINIAESFKEFAELLNEVENERMMMVHNASDLLIKPLENFRKEQIGFTKERKKKFEKDGERFYSLLDRHLHLSSKKKESQLQEADLQVDKERHNFFESSLDYVYQIQEVQESKKFNIVEPVLAFLHSLFISNSLTVELTQDFLPYKQQLQLSLQNTRNHFSSTREEMEELKKRMKEAPQTCKLPGQPTIEGYLYTQEKCVWGHRGIHWVSISQELLPLVGCEFWAPLLFIDP,not failed
4,SGKVILITGASRGIGLQLVKTVIEEDDECIVYGVARTEAGLQSLQREYGADKFVYRVLDITDRSRMEALVEEIRQKHGKLDGIVANAGMLEPVKSISQSNSEHDIKQWERLFDVNFFSIVSLVALCLPLLKSSPFVGNIVFVSSGASVKPYNGWSAYGCSKAALNHFAMDIASEEPSDKVRAVCIAPGVVDTQMQKDIRETLGPQGMTPKALERFTQLYKTSSLLDPKVPAAVLAQLVLKGIPDSLNGQYLRYNDERLGPVQG,not failed
5,SHHKVSVSPVVHVRGLCESVVEADLVEALEKFGTICYVMMMPFKRQALVEFENIDSAKECVTFAADVPVYIAGQQAFFNYSTSKRITRPGN,not failed
6,SHPCFVQGRPELLSQIKRKQSARTVEDKQVNEQTQQNLEVVMAEMRAMREKAKNMEDKMNKLTKENRDMWTQMGSMRQQHARQQQYFKKLLHFLVSVMQPGLSKRVAKRGVLEIDFCAANGTAGPNSKRARMNSEEGPYKDVCDLLESLQRETQEPFSRRFTNNEGPLISEVTDEFGNSPVGRGSAQDLFGDTFGAQSSRYSDGGATSSREQSPHPIISQPQSNSAGAHGANEQKPDDMYMGSGPLTHENIHRGISALKRDYQGASPASGGPSTSSSAPSGAGAGARMAQKRAAPYKNATRQMAQPQQDYSGGFVNNYSGFMPSDPSMIPYQPSHQYLQPHQKLMAIEDQHHPTTSTSSTNADPHQNLYSPTLGLSPSFDRQLSQELQEYFTGTDTSLESFRDLVSNHNWDDFGNNVPLDDDEEGSEDPLRQLALENAPETSNYDGAEDLLFDNEQQYPENGFDVPDPNYLPLADEEIFPHSPALRTPSPS,failed
7,SIAYIEPYFLENDAEAASAATAAGKSTDGVSESLNIQGEILCGGAAADIAGRDFGGMNCVKPLAVVRPVGPEDIAGAVKAALRSDKLTVAARGNGHSINGQAMAEGGLVVDMSTTAENHFEVGYLSGGDATAFVDVSGGALWEDVLKRCVSEYGLAPRSWTDYLGLTVGGTLSNAGVSGQAFRYGPQTSNVTELDVVTGNGDVVTCSEIENSELFFSVLGGLGQFGIITRARVLLQPAPDMVRWIRVVYTEFDEFTQDAEWLVSQKNESSFDYVEGFVFVNGADPVNGWPTVPLHPDHEFDPTRLPQSCGSVLYCLELGLHYRDSDSNSTIDKRVERLIGRLRFNEGLRFEVDLPYVDFLLRVKRSEEIAKENGTWETPHPWLNLFVSKRDIGDFNRTVFKELVKNGVNGPMLVYPLLRSRWDDRTSVVIPEEGEIFYIVALLRFVPPCAKVSSVEKMVAQNQEIVHWCVKNGIDYKLYLPHYKSQEEWIRHFGNRWSRFVDRKAMFDPMAILSPGQKIFNRSL,not failed
8,SIPMRLLSDCPQFSRKTVKLLTNGGDMLELCYELRLPFVHWISVNQKSSFKRYEISHVYRRAIGHSPPNPCLQADFDIVGGTLSLTEAEVLKVIVDITTHIFHRGSCDIHLNHGDLLDAIWSWAGIKAEHRRKVAELLSMMGSLRPQSSERKLKWVFIRRQLLQELKLPEAVVNRLQTVASRFCGDADQALPRLRGALRADRPTRKALDELSNLLTYLRVWRIEEHVHIDVLMPPTESYHRNLFFQVFLTKENSSGTSNDGVLLAVGGRYDWLVQEVCDREHKMNLPGAVGVSLALETIFQHLPMDLRPIRNEVSTSVLVCSRGGGGLLVQRMELVAELWEKSIKAEFVPTPDPSLTEQYEYANEHEIKCLVIITESGVAQNQIEFVKVRHLELKKEKVVGR,not failed
9,SIRTKQSEAKSKGDTLRQLELAALMTHCNMLITHQQLALQAAMKLAYATKNYLYALAFAKRLLELAPNEEMERTAKKVMQFCERNPNNQNQLDYDIEQSNFAIDAGRLKPCIQPPTKSCVYCGACYDESWHSMTCVVCQVAQD,not failed
10,SIVLSDPDTVADYLRFHLGQEKVEVSVALLLNRQNQLIAVRELSRGTVAENTIYIREIVKLALDEYADSLIIAHNHPGGSPEPSQEDIMFTRRLAQAMSLVDVSLLDHFIVTSQSVCSFRQLGLMP,not failed
11,SKDHTEFMVHLNNRIILRRWSIFKEFLHSEELKNTPASVEAELAVTAILEKLNQQIPPRPFQTHSSTTSAKQSTATIHNPQRTYCVGDQLNVLLVAKDYFGNRKEYGGDFLRARIFSPAMKAGTSGKVTDFNNGTYLVSFTLFWEGPVSLSILLMHPSEGVSALWRARNRGYGKIIFTGQFLNGTSPVLTECGLTLNTSAELCQYLDARDHEAFYCLKLPGVPCEALTHMTSKNSNISYLSLEEKLLFRRFNIGVEVVKNLSIVVSLCNNKTNKKKKKCQIGMETPSPGGYTLKGRWITAHCEQNEFRAIKDINNCLTRKLIYLMGDSTLRQWIYYLPKVVKTLKYFDRHGAGPFKTHILLDTERHIFVQWKKHSHPFVTNKLFSMKDDNYIPREIDQVAGDSGTAIVISFGQHFRPFPINVFIRRAINVKNAIERLFLRSPETKVIIKTENIREINEHVEIFSDFHGSIQNLIIRDIFRDLNVGIIDAWDMTVAYRSEDVHPPESVIESQIGMFLNYIC,failed
12,SKDPAFTALLTTQLQVQREIVNKHNELRKAVSPPASNMLKMEWSREVTTNAQRWANKCTLQHSDPEDRKTSTRCGENLYMSSDPTSWSSAIQSWYDEILDFVYGVGPKSPNAVVGHYTQLVWYSTYQVGCGIAYCPNQDSLKYYYVCQYCPAGNNMNRKNTPYQQGTPCAGCPDDCDKGLCTNSCQYQDLLSNCDSLKNTAGCEHELLKEKCKATCLCENKIY,failed
13,SKDVLADYKELFRQFSISDIAVWVSTPSFAGVCITEKEFNSKMLPNLESMIFIGEALSKNLTKELMSRFPNTRIINGYGPTEATVGVSVNDMTQKAIDDEK,failed
14,SKEVRGTLKVSAPRDIGKQHIAPILAAFTEQYPEVVPYLYLNDNISNLAESGLDVVIRYGELADSSLISRKLATSRRVLCASPAYLARKGIPKTPQDLAQHDCLAMVRSNEEMKTWHFQENEQHKVITVVPKSFADDGEVIR,failed
15,SKIHNVGSPLKSQNHPDSRAIMYEETTYSKKKIIDFLSALEGFKVMCKIIGIMEEVADGFKSKILKQVISLQTKNPEGRFPDLTVELNRWDTAFDHEKARKTGLITPKAGFDSDYDQALADIRENEQSLLEYLEKQRNRIGCRTIVYWGIGRNRYQLEIPENFTTRNLPEEYELKSTKKGCKRYWTKTIEKKLANLINAEERRDVSLKDCMRRLFYNFDKNYKDWQSAVECIAVLDVLLCLANYSRGGDGPMCRPVILLPEDTPPFLELKGSRHPCITKTFFGDDFIPNDILIGCEEEEQENGKAYCVLVTGPNMGGKSTLMRQAGLLAVMAQMGCYVPAEVCRLTPIDRVFTRLGASDRIMSGESTFFVELSETASILMHATAHSLVLVDELGRGTATFDGTAIANAVVKELAETIKCRTLFSTHYHSLVEDYSQNVAVRLGHMACMVENECEDPSQETITFLYKFIKGACPKSYGFNAARLANLPEEVIQKGHRKAREFEKMNQSLRLFREVCLASERSTVDAEAVHKLLTLIKEL,failed
16,SKIIDIKTSIIKIPLKRTFITAVRSTNHIDSLAVELTLDNGVKGYGVAPATTAITGDTLQGMQYIIREIFAPVILGSDLSDYKQTLELAFKKVMFNSAAKMAIDLAYHDLLAKEQDISVAKLLGAKANSIVTDVSISCGNVAETIQNIQNGVEANFTAIKVKTGADFNRDIQLLKALDNEFSKNIKFRFDANQGWNLAQTKQFIEEINKYSLNVEIIEQPVKYYDIKAMAEITKFSNIPVVADESVFDAKDAERVIDEQACNMINIKLAKTGGILEAQKIKKLADSAGISCMVGCMMESPAGILATASFALAEDITVADLDPLDWVAKDLYSDYITFNEPNIILKDNLKGFGFNL,not failed
17,SLDLDLQRRVYDIISKAVEGNSAEAGHVIVMESKTGRILSMVTTRNWNDLIGGYIEPGSTIKPLVYAIALETHSASPDFTVECEGSIKPVEQLPVIIRDIEKHGLVDFSAGIVKSCNVMSVKVGELITEKTGVEGFYEWLRKVGFGEKTGIEMEGEIAGVLREPKKWSLIDPAEISIGQGIGVTPVQLIASLNIFANDGYWVKPTILKDSPVKKRRVFSKETTDVIRQAMVRVVEEGTGKLAQVKGIAIAGKTGTAQKAVGGEYRNLYHSLFVGFFPAEDPKYTILVHLDSPSGAFYGGEVAAPVFREIVEILTEKED,failed
18,SLENERLIKMSRFSERGYVVRENGPVYFTKDMDKTVKWFEEILGWSGDIVARDDEGFGDYGCVFDYPSEVAVAHLTPFRGFHLFKGEPIKGVAGFMMIEGIDALHKYVKENGWDQISDIYTQPWGARECSITTTDGCILRFFESIQEG,not failed
19,SLENLATAPVNQIQETISDNCVVIFSKTSCSYCTMAKKLFHDMNVNYKVVELDLLEYGNQFQDALYKMTGERTVPRIFVNGTFIGGATDTHRLHKEGKLLPLVHQCYLKKSKRKEFQ,not failed
20,SLGAMFRAGTPMPPNLNSQGGGHYFIDRDGKAFRHILNFLRLGRLDLPRGYGETALLRAEADFYQIRPLLDALRELEASQGTPAPTAALLHADVDVSPRLVHFSARRGPHHYELSSVQVDTFRANLFCTDSECLGALRARFGVASGDRAEGSPHFHLEWAPRPVELPEVEYGRLGLQPLWTGGPGERREVVGTPSFLEEVLRVALEHGFRLDSVFPDPEDLLNSRSLRFVRH,not failed
21,SLGVQPPNFSWVLPGRLAGLALPRLPAHYQFLLDLGVRHLVSLTERGPPHSDSCPGLTLHRLRIPDFCPPAPDQIDRFVQIVDEANARGEAVGVHCALGFGRTGTMLACYLVKERGLAAGDAIAEIRRLRPGSIETYEQEKAVFQFYQRTK,not failed

# Source: a protein production outcome set (Wang et al. 2014)
